Results on 8 molecules are retold here after PMC2665213 (Nucleic Acids Research, 2009).

In series [1] the target is T1, TDP-43s (RRM1-RRM2) (mouse, UniProt Q921F2 101-265). As to the kind of experiment: filter binding.
Series [2] has as its target T2, TDP-43 RRM2 (mouse, UniProt Q921F2 192-265). Nature of the series: filter binding.
For series [3], the target named is T3, TDP-43 RRM1 (mouse, UniProt Q921F2 101-191). As to the kind of experiment: filter binding.
Series [4] deals with T1, TDP-43s (RRM1-RRM2). Nature of the series: filter binding. This is another data set of the same source.
Series [5] concerns the molecule itself. As to the kind of experiment: SEC. (In general: SEC sorts molecules by how far they enter the pores of the column.)
Series [6] deals with the molecule itself. Nature of the series: SEC. The source holds these as a separate data set.
Series [7] has as its target T2, TDP-43 RRM2. Nature of the series: crystal structure.
The target in series [8] is T2, TDP-43 RRM2. Nature of the series: filter binding. The source holds these as a separate data set.
The target in series [9] is T3, TDP-43 RRM1. As to the kind of experiment: filter binding. The source holds these as a separate data set.

Like-named read-outs stand apart in the source and are kept apart here.

As to UGUGUGUG (ssRNA) [(UG)4], in the series with TDP-43s (RRM1-RRM2) [1], the Kd was 115 nM. UGUGUGUGUGUG (ssRNA) [(UG)6]: the figures for the Kd in the series with TDP-43 RRM2 [2], with TDP-43 RRM1 [3] and with TDP-43s (RRM1-RRM2) [4] were 4240 nM, 65.2 nM and 14.2 ± 1.4 nM, respectively.

B1: TDP-43s (truncated mouse TAR DNA-binding protein 43 covering both RRM domains) (domain or fragment)
chain: MRGSHHHHHHGSQKTSDLIVLGLPWKTTEQDLKDYFSTFGEVLMVQVKKDLKTGHSKGFGFVRFTEYETQVKVMSQRHMIDGRWCDCKLPNSKQSPDEPLRSRKVFVGRCTEDMTAEELQQFFCQYGEVVDVFIPKPFRAFAFVTFADDKVAQSLCGEDLIIKGISVHISNAEPKHNKLN
With B1, the “stoichiometry N” value in “SEC [5]” turned out to be 2.

B2: RRM2 (second RRM domain of mouse TDP-43) (domain or fragment)
chain: MRGSHHHHHHGSKVFVGRCTEDMTAEELQQFFCQYGEVVDVFIPKPFRAFAFVTFADDKVAQSLCGEDLIIKGISVHISNAEPKHNKLN
On to B2, for which the “stoichiometry N” value in “SEC [6]” is 2; in the series “SEC [5]”, 4.

B3: RRM1 (first RRM domain of mouse TDP-43) (domain or fragment, UniProt Q921F2 101-191, looked up)
chain: QKTSDLIVLGLPWKTTEQDLKDYFSTFGEVLMVQVKKDLKTGHSKGFGFVRFTEYETQVKVMSQRHMIDGRWCDCKLPNSKQSPDEPLRSR
B3: the “stoichiometry N” value in the series “SEC [5]” was found to be 4.

Take GTTGAGCGTT (ssDNA) [10-mer crystal ssDNA]: the binding result in the series with TDP-43 RRM2 [7] was “binds”. In the case of UGUGUG (ssRNA) [(UG)3], the results for the Kd in the series with TDP-43 RRM2 [8], with TDP-43 RRM1 [9] and with TDP-43s (RRM1-RRM2) [1] were 379 nM, 4690 nM and 3060 nM, respectively.

The molecule UGUGUGUGUGUGUGUG (ssRNA) [(UG)8] showed a Kd with TDP-43s (RRM1-RRM2) [1] of 2.79 nM.

For orientation: Kd means the equilibrium constant for the complex coming apart. Broadly, the stoichiometry N is a count of units in the complex or per binding partner.
